From PMC3310976 (Chromosoma, 2011) come the findings set out here.

The target in assay [1] is T1, His-tagged (6x) Drosophila histone H1 fusion protein (Drosophila, UniProt P02255 1-256).
T1 sequence (looked up): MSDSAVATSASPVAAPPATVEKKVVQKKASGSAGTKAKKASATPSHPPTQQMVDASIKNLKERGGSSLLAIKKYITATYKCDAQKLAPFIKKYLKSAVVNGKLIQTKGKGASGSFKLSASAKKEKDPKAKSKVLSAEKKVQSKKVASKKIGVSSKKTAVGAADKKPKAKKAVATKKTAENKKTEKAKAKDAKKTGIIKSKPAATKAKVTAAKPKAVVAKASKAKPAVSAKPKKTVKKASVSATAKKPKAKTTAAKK
The assay can be described thus: pull-down.

For assay [2], the target named is T2, full-length Drosophila histone H1 fusion protein with a maltose binding protein-tag (Drosophila, UniProt P02255 1-256).
T2 sequence (looked up): T1 sequence (looked up)
As to the kind of experiment: far-Western, overlay or dot blot.

B1: GST-tagged Chromator chromodomain (219-277) (domain or fragment, Drosophila, UniProt Q86BS3 219-277, looked up)
chain: TEEPVEKIVAKRFNPRRKTHEYLVKWVDRSHHENTWEVMANLERVPYFLQMFEKQLARQ
With B1, the binding result in assay [1] and in assay [2] was “binds” throughout.
